Legend:
[1] = target: Human recombinant fibroblast activation protein alpha (human) (UniProt Q12884); assay: cross-linking + other: mass photometry
[2] = target: Biotinylated dipeptidyl peptidase IV (Homo sapiens, UniProt P27487, biotin); assay: BLI
Biotinylated dipeptidyl peptidase IV, sequence (P27487 39-766): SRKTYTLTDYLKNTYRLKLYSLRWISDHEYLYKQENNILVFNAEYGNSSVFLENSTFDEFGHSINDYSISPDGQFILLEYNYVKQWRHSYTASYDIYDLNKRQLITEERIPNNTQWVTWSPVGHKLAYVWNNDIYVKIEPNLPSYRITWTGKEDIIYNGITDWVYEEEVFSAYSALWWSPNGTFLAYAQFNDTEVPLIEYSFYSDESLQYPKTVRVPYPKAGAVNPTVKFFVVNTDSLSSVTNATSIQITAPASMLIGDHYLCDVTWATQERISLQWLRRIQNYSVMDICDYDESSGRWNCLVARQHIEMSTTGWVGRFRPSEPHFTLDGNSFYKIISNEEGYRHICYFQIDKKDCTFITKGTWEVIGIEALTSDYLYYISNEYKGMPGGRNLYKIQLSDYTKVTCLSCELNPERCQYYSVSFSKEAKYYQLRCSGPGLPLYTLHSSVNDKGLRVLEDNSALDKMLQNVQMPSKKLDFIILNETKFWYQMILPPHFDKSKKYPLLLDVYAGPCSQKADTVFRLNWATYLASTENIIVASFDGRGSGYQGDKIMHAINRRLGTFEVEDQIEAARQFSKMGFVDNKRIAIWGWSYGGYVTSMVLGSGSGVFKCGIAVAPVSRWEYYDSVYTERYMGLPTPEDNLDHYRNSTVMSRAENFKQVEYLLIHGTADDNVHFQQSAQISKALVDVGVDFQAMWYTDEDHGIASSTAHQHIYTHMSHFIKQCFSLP

Human recombinant fibroblast activation protein alpha (human), sequence (Q12884 39-757): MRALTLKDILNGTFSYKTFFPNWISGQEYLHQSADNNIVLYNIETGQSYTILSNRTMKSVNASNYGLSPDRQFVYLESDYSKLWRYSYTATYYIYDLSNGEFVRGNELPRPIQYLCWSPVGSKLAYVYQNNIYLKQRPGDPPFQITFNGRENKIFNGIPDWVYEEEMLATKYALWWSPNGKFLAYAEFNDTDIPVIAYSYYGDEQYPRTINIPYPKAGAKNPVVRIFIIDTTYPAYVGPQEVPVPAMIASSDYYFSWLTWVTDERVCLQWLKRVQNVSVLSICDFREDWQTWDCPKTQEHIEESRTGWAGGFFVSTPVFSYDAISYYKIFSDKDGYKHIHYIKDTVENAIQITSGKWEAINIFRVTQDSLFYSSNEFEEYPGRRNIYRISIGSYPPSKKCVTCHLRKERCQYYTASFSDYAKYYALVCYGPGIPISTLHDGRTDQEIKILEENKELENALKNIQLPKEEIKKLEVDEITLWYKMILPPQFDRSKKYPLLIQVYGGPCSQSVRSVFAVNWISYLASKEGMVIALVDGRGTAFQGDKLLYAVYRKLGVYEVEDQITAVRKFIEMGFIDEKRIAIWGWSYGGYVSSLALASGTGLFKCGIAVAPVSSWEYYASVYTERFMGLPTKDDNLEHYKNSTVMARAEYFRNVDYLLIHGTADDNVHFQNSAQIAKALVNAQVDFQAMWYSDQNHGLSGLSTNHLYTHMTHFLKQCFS

Row | Binder | stoichiometry N [1] | binding result [2]
1 | SUMO-I3 (single domain antibody I3 fused to an N-terminal 6X His-SUMO-FLAG tag) (VHH) VHH: EVQLVESGGGLVQPGGSLRLSCAASGFTFSSYAMSWVRQAPGKGLEWVSAINSGGGSTSYADSVKGRFTISRDNAKNTLYLQMNSLKPEDTAVYYCAKARTGWSLAVPSFGSWGQGTQVTVSS | 1 | –
2 | MBP-I3 (single domain antibody I3 with an N-terminal MBP fusion and a C-terminal 6X His-tag) (VHH) VHH: EVQLVESGGGLVQPGGSLRLSCAASGFTFSSYAMSWVRQAPGKGLEWVSAINSGGGSTSYADSVKGRFTISRDNAKNTLYLQMNSLKPEDTAVYYCAKARTGWSLAVPSFGSWGQGTQVTVSS | – | no binding (tested: 10 μM)

— PMC11507940 (bioRxiv, 2024)
